Assay results as given in patent publication US20240026407A1, “MODIFICATION OF SAPONINS” (GLAXOSMITHKLINE BIOLOGICALS SA, priority 2020, published 2024).

Tests used:
Assay type in all cases: biochemical, Quillaja saponaria
[1] = Experiment 6-1: screening of rhamnosidases for derhamnosylation of saponins in treated bark extract (2%), QS-17 2310 to QS-18 2164 (PAR %); conditions: TBE 2%, pH 7.5, 30 degC, 18 h; TIC peak area ratio percent, LCMS/MS; negative controls 3.061, 2.429
[2] = Experiment 6-1: screening of rhamnosidases for derhamnosylation of saponins in treated bark extract (2%), desglucosyl-QS-17 2134 to QS-21 1988 (PAR %); conditions: TBE 2%, pH 7.5, 30 degC, 18 h; TIC peak area ratio percent, LCMS/MS; negative controls 2.719, 2.158
[3] = Experiment 6-3: screening of rhamnosidases for derhamnosylation of saponins in crude bark extract (80%), relative % of Left, Middle and Right Peak by UV HPLC; conditions: CBE 80%, pH 7.4, 30 degC, 19.5 h; for Left Peak: mainly QS-17 family, negative control 27%; for Middle Peak: mainly QS-18 and desglucosyl-QS-17 family, negative control 48%; for Right Peak: mainly QS-21 family, negative control 26%
Protocol: Selected variants were expressed and lysed as in the method of experiment 6-1.
Crude bark extract (CBE) solution was adjusted to pH 7.4 by addition of NaOH (2M). 20 uL clarified lysate was transferred into fresh 96 well PCR plates. 80 uL CBE solution (pH 7.4) was added to each well of lysate to a final concentration of 80%. Plates were incubated at 30 degC with shaking for 19.5 h.
Quenched with 100 uL MeCN+2% AcOH and shaken at room temperature for 10 mins prior to centrifugation (10 min, 4 degC) to remove particulates. Samples were analysed by UV HPLC using method of Experiment 4-4.
Three key peaks of interest are apparent using this chromatography: Left Peak (retention time approximately 2.30-2.35 min) comprising mainly QS-17 family components; Middle Peak (retention time approximately 2.37-2.42 min) comprising mainly QS-18 family components and desglucosyl-QS-17 family components; and Right Peak (retention time approximately 2.44-2.50 min) comprising mainly QS-21 family components. Peak identity was supported by MS/MS.
Enzyme mediated hydrolysis of the alpha-O-rhamnosylation at the C2 position of the arabinofuranose moiety of QS-17 family components leads to a decrease in Left Peak and an increase in Middle Peak due to formation of QS-18 family components. Enzyme mediated hydrolysis of the alpha-O-rhamnosylation at the C2 position of the arabinofuranose moiety of desglucosyl-QS-17 family components leads to a decrease in Middle Peak and an increase in Right Peak due to formation of QS-21 family components.
The relative percentage of each peak was determined. A decrease in Left Peak and a concomitant increase in Middle Peak and Right Peak is observed for enzymes active under these conditions.

[4] = Experiment 6-2: screening of rhamnosidases for derhamnosylation of saponins in treated bark extract (25%), relative % of Left, Middle and Right Peak by UV HPLC; conditions: TBE 25%, pH 7.4, 19.5 h; for Left Peak: mainly QS-17 family, negative control 24%; for Middle Peak: mainly QS-18 and desglucosyl-QS-17 family, negative control 50%; for Right Peak: mainly QS-21 family, negative control 26%
[5] = Experiment 6-1: specificity of rhamnosidases towards other rhamnose residues (C3 saccharide rhamnose, C28 saccharide rhamnose); conditions: TBE 2%, pH 7.5, 30 degC, 18 h; LCMS/MS; negative controls 0.18, 0.17
[6] = Experiment 6-1: screening of rhamnosidases for derhamnosylation of saponins in treated bark extract (2%), QS-17 2296 to QS-18 2150 (PAR %); conditions: TBE 2%, pH 7.5, 30 degC, 18 h; TIC peak area ratio percent of rhamnosylated starting saponin to derhamnosylated product, LCMS/MS; negative controls 4.876, 5.225

Row | Molecule | Peak57 (PAR %) [1] [%] | Peak75 (PAR %) [2] [%] | Left Peak [3] [%] | Middle Peak [3] [%] | Right Peak [3] [%] | Left Peak [4] [%] | Middle Peak [4] [%] | Right Peak [4] [%] | ratio PP/QS-21 [5] | QS-17 (PAR %) [6] [%]
1 | 1055 (protein, alpha proteobacterium) MRKAMILLTACLLSGTSALAADTLRDGFQTPPDSAKPRVWWHWLGNNVTADGIDKDLAWMRRVGIGGFQLFSGNLETPLLVDKPVVVFSPEWRAMVRHAAERADALGLEMTMAASAGWSETGGPWVKPEQAMKKLVWSETVITGAKRFQGRLPSPPTGNGPFQDMPMPPELRLPPPPPVPGARPRPPAAAHGPSPSYYADVAVVAYRLPDAVVPLGSLKPRISSSAGDAAILSDGRYDAPLRLEQKTPDGQLAWVEYTFDKPVSLPAVTLAATIEDPLNALSPSGVVEVADENGTFRDLVRVAPQEPVAFPAAAPVRTVALPEASSRRWRFRLDPIPPQALALPGMPQQTVHAVTELRFETEAMVDRWQAKAAYDTMRSYDTGPQPVRPVPARDQVVNLTARIGADGTLDWTPPPGRWQVLRIGYSLTGAKNHPADPEGTGFEVDKLDAAAVRAYLEGYLGPIDQALGDLRGAKGLKNLLTDSWEAGQANWTPALPAEFKRRRGYDLTPWLPVLTGRVVGSAADSERFLWDFRRTIADLLAEAHYKTIRDFAHEKGLGYYGEAMGTRLPTTGDGLLNKRYTDIPMGEFWQMPPGAPSDPAHTSDIAEAASAAHFYGQNLVAAEAFTALPFMPPFTATPAALKPFADRFLARGVNRFVIHTSVHQPSDDLRPGITLGPFGQYFTRHETWAEQAGAWMSYLSRSSYLQQQGRHVADIAWFVGEGGAISAPDPDRLSPALPKGYRLDFVARDAVTELLSVKDGHLLAPSGVVYRLLVVPPDARSGDLKLSLAVLRRLRDLLNQGAAVLAPRPTGSTSLSDDPAQVAALIGELWGVDTPIPRSIGKGRLYPAPDIAAALADRGVAPDLTMAGAMDADIVWSHRRTDDADIWFVANQKDRAESVTLSLRGDGRDVSLWHADSGAVEPAPFRQEAGRTSVPLTLSPNQAIFIVQRGSAPATARDVATPVEAESLALSGVWTLFFPKGQAMPDSVPLPKLGLWNDMSDPAVRHFSGTATYATEVKLPAAWAGKPVWIDLGAVHEVATVRVNGTEAGIAWKQPYRIDVGPLLKAGTNKLEVAVSNLWPNRIVGDAGGAGGVRVTTNTHPLLHPDTKARLLPSGLAGPVRLVRMELPGGNG | 0.000 | 0.000 | 25 | 48 | 27 | 7 | 62 | 31 | 0.19 | 0.019
2 | 1075 (protein, listed as Asticcacaulis sp.) MTRLNRRHFLAASGLAATVAPTMSRSKTLAKTALGVTDLRAEQSENLLGTQAREPRLSWRLTGTERGIMQAGYRLRAGSKPGTADLWDSGNIASDACFDIPYKGKPLNAMQRVWWTVEVRDAKGRTATSAPAWFETGLLAPGDWKAQWIVAEDALAEGDRKAGLQWIWSEKALDNRLHAFRLDFDVPANLASSEVLIAGKDWIRGVWANGEQLPTPDQLVPNWGTLVPVPAKLKPGKNSVCVLVQAETTGFFPVDGGAFAALIRLRLSDGTIKRLVSDTNWKVRPLPPEAWTTADFDASGWVRAQKSGADAQNDPRPAEPAMLLRKAFTPAKKVVNARLYATALGAYEARLNGQPVSTAKMAPEISVTKDHIYYQTYDVTKLIRAGDNALGVVMGDGFYASAFGWRLERYGFGPAPRRLLAQLRLDYADGTSEWIVTDDSWRIGQSPIVTSEIYDGEVFDARLKTDGWDKTGFNAARWPAVRLGQAPHTKIVAQTGPLLVPVSKRRGTITQPKPGIYVIDFGQNFAGWARLNVKGTSGHTVTLKFAEYLKADGEVDQANLRMAKCRDIYTLRGDAGGETFEPSFTYHGFRYVQVENFPGVPTPADIEGIVVTSYCRETGRMTFDDPIIQKFWQNSVWSQRSNFFMVPTDCPQRDERMGWMGDIQVFLDAATFNMECDPFIRRYLDEVRASQTAEGAFPIVCPQPESFPEVTTAGWSEAGVILPWTLWRRYGDTAVIDENWVAMTKWMDYLFKYNPDYVWRKERGLDLGDWLSVDAVKPDDETTPRILCATGYWAYCADLMTQMAAATGREAEAAKYREVRAKIGAAFAKEFVDKDGKAGNGSQTSQILALYFNLVPAERRAAAGEILAKEIRGRGMKLSTGFLGTPYLLDVLADTGHLEEVSGLLKQREKPSWGYMPLKGATTMWERWDGDTGDLAMNSYNHYAYGAVCGFMYRRLAGLAPAAPGFRKMTVEPIYLPHVGKVTANYESCLGTMAGAVTGNASGLKTYDLTVPPNAVAEVILPDGAWREGGKALTGHADIRALRRDSGKVRFEVGSGSYRFKI | 0.000 | 0.000 | 26 | 47 | 27 | 9 | 61 | 30 | 0.18 | 0.043
3 | 1001 (protein, listed as Brachybacterium faecium) MNSAPASPADTPSAGAGRPAAQLQDALAITAVEDTGRLPQLVHTVTLAQPRDQVRRAELLATAHGLYEMRIGGAPATESVLNPGWTTYERRLQVQRLDVTAQVRQRPEGLAAADADRLDLEATLADGWWRGDLGFDGGVRYGDDLALLAAVEIEFADGTRQRVVTDESWRSRPSAIMSANIYHGQHEDRRLGLGPETPVRVVEIDRSTLVEQVSPPVLRHESRRPERIWTSPAGRTLVDFGQNLVGWLRFTVTGPEGTEIVLRHAEVLEDGELGTRPLRAARATDRLVLAGDPAGETFEPTFTFHGFRYAEISGWPGELAAEDLEAVVVHSALRRTGWFECSHAGVNQLISNSLWSQRGNFLSVPTDCPQRDERLGWTGDIAAYAATAAFQHDVGDFLHGWLLDLGQEARMNPHGIVPFVVPDLLKPGLGAGDPAAADEGWGTPTAIWGDAAVWVAEALWTAYGDLDRLRAHYPAMVRHLDSVDRALSPSGLWDTGFQFGDWLDPDAPPEAADRAKADKGVVATACLVRSARFAAQAARLLGEEVDARRWQGLAERTLAAFTTAYVHENGTITSDCATVYALAIAFDLLDAGTRPRAAARLAEVVAEAGHRVSTGFAGTPFVTWALSETGHVEEAYRLLLEEGCPSWLYPVSMGATTIWERWDSMLPDGSINPGEMTSFNHYALGAVADWVYQVVLGVRPAAPGYRRIRIQPVPGPGIEWAEGAHDSAAGRIEVSWEHSADGLRGTATIPEGAEAEIVLPDGRARTVGPGRHSF | 0.000 | 0.137 | 31 | 45 | 24 | 14 | 59 | 27 | 0.19 | 0.075
4 | 1007 (protein, listed as Modestobacter marinus) MSDPTVTVVRLRTDDDSGLTATANATPRLSWSLAADRSGVLQRGYEVQVAPDPGFADPVSSGEVDSDVVVDHDWPAAPLTSRQVAYWRVRVRTDQGWTAWGEPACVEAALLEDADWTARPVFLAGDRGRDGVGPAPLLRREFELPAEPVSARLYLTALGVHRTTLNGRPVGDELLEPGWTSYRDRLLYATHDVTALLRAGRNVLAGSVGDGWFRGNLGWDRLRDFYGDASALLAQLEVRCADGSTVTVSTDEHWRGGYGAVRAADLYDGCDIDLREEPVGWAEAGFDDAGWEPVGTLPLPAGLSQRALPPVRVLQEIEPQVSELSDGTLAVDAGQNVTGWLRLRVTGPSGARVTVRHAEVLDEKGRLVTTLLRSARATDTVVLAGGTADLEPEFTFHGFRYAEVEVPPGVTVDAVRVAVVASDLRRTGQFSCSNPRVDQLFSNVIWSQRDNFLSIPTDCPQRDERLGWTGDIMAFAPTAAANFDSRAFLDSWLTDVGIEQLPSGGVPMVVPNCLTGEFPSPLPQADGAAGWADAVTVVPAALFRAHGSRDLLRRHVGSMQRWVDYVAGLLAEDGTWSGYLQLGDWLDPNAPPERPFEAVTDRDYVATVFVAHSARLLAATCRELGRGPDADRYAALGDRVAQAAWAKWADLAPTTQTGCALAIVFGSAPDAELPALGDALAGLVRASGGRIGTGFLGTPFVLPALTATGHLAEAYQLLLNEECPGWLYQIRHGATTMWERWDGILADGSVHPGQMADGSTMSSFNHYAYGAVASWLYESVAGLSPAAPGYREVLVAPQPGGGLTRAAASIETEYGPASVGWSTDGATLTVDVTLPPGTTGRFAVPAGWSPQQPVALLGSGQHTLLLTGAGA | 0.009 | 0.043 | 24 | 49 | 27 | 8 | 62 | 30 | 0.19 | 0.104
